Assay results taken from article PMC4281351, “Heterogeneity of quaternary structure of glucosamine-6-phosphate deaminase from Giardia lamblia” (Parasitology Research, 2014).
Where “and” joins values, the source holds several entries; their conditions need not be identical. Equal entries are not always repeated.

B1: wild-type glucosamine-6-phosphate deaminase of Giardia lamblia (GlmNagB) (enzyme, UniProt O97439 1-266, looked up)
chain: MPSIHVSKCADPAIKLAHRIAEVVRSKPNCVLGLATGSTPIPVYQELARLHREEGLDFSQVRTFNLDEYAGLPPTHDQTYRFFMEEHLFSKVNIKPENVHFLNGMASDYEKECERYEQELKAIGPCDVWLLGIGHNGHIAFNEPGSPRDSRTRVVCLTQSTIDANARFFGNDKSKVPTKALSVGIATIMESREILLLATGESKREAVTKSVKGKCETHCPASFLHEHPHCRFYVDMDAGKVVDNTCCQATNQASCCGSTSCHAAKA
notes: glucosamine-6-phosphate deaminase of Giardia lamblia, GPI1 (GN6PI) gene cloned from strain MR4; primers run from the start ATG to the stop codon; calculated mass 29.4 kDa; No tag (pETTopo-GlmNagB); In solution a mixture of monomer, homodimer and homotetramer; also called wild-type GlmNagB; native GlmNagB; source: E. coli BL21(DE3) pLysS, purified (streptomycin sulfate, ammonium sulfate, PEG, ion …)
B2: G. lamblia GlcN6P deaminase with N-terminal His6 fusion (GlmNagB-HisN) (enzyme, Giardia lamblia, UniProt O97439 1-266, looked up)
chain: B1 chain
notes: glucosamine-6-phosphate deaminase of Giardia lamblia, GPI1 (GN6PI) gene cloned from strain MR4; NdeI/BamHI insert from the start ATG to the stop codon in pET15b; calculated mass 31.7 kDa with the tag; source: E. coli BL21(DE3) pLysS, purified (Ni2+-IDA agarose); not shown: His6, N-terminal, kept
B3: G. lamblia GlcN6P deaminase with C-terminal His6 fusion (GlmNagB-HisC) (enzyme, Giardia lamblia, UniProt O97439 1-266, looked up)
chain: B1 chain
notes: glucosamine-6-phosphate deaminase of Giardia lamblia, GPI1 (GN6PI) gene cloned from strain MR4; forward primer from the start ATG, reverse primer adds six His codons after the last codon and then the stop; calculated mass 30.2 kDa with the tag; pETTopo-GlmNagB-HisC; hexaHis stands directly at the C-terminus; source: E. coli BL21(DE3) pLysS, purified (Ni2+-IDA agarose); not shown: His6, …

Molecular target: the molecule itself
Experiment: SEC; Superdex 200HR 10/300 GL; 0.5 ml applied, 0.5 ml/min; 50 mM potassium phosphate pH 7.0, 0.15 M NaCl; masses from a plot of log molecular mass versus Kav; fresh preparations and preparations stored for several hours at 4 °C or of higher protein concentration

Row | Protein | stoichiometry N
1 | B1 | 4 and 2
2 | B2 | 4 and 2
3 | B3 | 4 and 2
